Measurements as given in US20220098307A1 (WUHAN YZY BIOPHARMA, published 2022).

T1: Human BCMA (human, UniProt Q02223 1-54)
T1 sequence: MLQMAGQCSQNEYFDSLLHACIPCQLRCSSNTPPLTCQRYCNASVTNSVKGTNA


Experiments:
Human CD3ε = target: T2, Human CD3ε (human, UniProt P07766 23-126); test: flow cytometry, human T cells
T2 construct: CD3 on T cells isolated from human whole blood
How it was run: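 Antibody titrations (11 points, 3-fold from 3000 nM) incubated 2 h at 4° C with 2×10⁵ target cells per well—T cells for CD3, antigen-positive tumor lines such as MM.1S or RPMI 8226 for CD38.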

Monkey CD3 = target: T3, Monkey CD3 (monkey); test: flow cytometry, monkey T cells
T3 construct: whole, on cells; also called CD3 of monkey CD3 positive T cells

Human BCMA = target: T1, Human BCMA; test: flow cytometry, human tumor cells (table of the BCMA series)
Excerpt: 1) Cell preparation: T cells isolated from CD3-positive human whole blood were used for a CD3 end affinity detection of multifunctional antibody molecule; positive tumor cells of corresponding antigen were used for detecting affinity of tumor antigen; for example, CD38-positive MM. 1S cells (purchased from the Cell Resource Center of Shanghai Institutes for Biological Sciences, Chinese Academy of Sciences) or RPMI 8226 cells (purchased from the Cell Resource Center of Shanghai Institutes for Biological Sciences, Chinese Academy of Sciences) were used for CD38 antigen detection, and PD-L1 positive H358 cells (purchased from the Cell Resource Center of Shanghai Institutes for Biological Sciences, Chinese Academy of Sciences) were used for PD-L1 antigen detection, and so on. The cells were resuspended with 1% FBS-PBS, adjusted to a density of 4×10⁶/ml, and 50 μl of cells were taken from each well, and then plated at 2×10⁵ per well. Cell plating was operated on ice
2) Addition of the antibody: according to the experimental design, the antibody was diluted gradually, and dilution of antibody was operated on ice. For example, the initial concentration of antibody for dilution was 3000 nM, and the antibody was diluted by 3 times with 11 concentration gradients. The diluted antibody was added to a cell well at 50 μl per well, mixed well, and shaked and incubated at 4° C. 1100 rpm/min for 2 h; after washing, the cells were resuspend in 1% FBS-PBS, and a diluted secondary antibody PE anti-human IgG FC (Biolegend, 409304) was added with a final concentration of 8 ug/ml and a volume of 50 μl/well. At the same time, a well only added with cells and secondary antibody was set as a control, the components were mixed well, and incubated under shaking at 1100 rpm/min at 4° C. for 1 h;
5) Data analysis: the data was analyzed by a flow analysis software FlowJo 7.6 thereby obtaining an average fluorescence intensity of the specific antibody concentration, plotted by a Graphpad Prism 5 with the antibody concentration (nM) as an abscissa and the average fluorescence intensity as an ordinate; the EC50 value was calculated by the method of One site—Specific binding, and the EC50 value indicated the cell affinity of the antibody to the corresponding target antigen.

Row | Binder | EC50 (Human CD3ε) | EC50 (Monkey CD3) | binding result (Human BCMA)
1 | M2IC-G2 (bispecific antibody, human IgG1, kappa, structure 2 isotype control; CH2 G2CH2) EVKLDETGGGLVQPGRPMKLSCVASGFTFSDYWMNWVRQSPEKGLEWVAQIRNKPYNYETYYSDSVKGRFTISRDDSKSSVYLQMNNLRVEDMGIYYCTGSYYGMDYWGQGTSVTVSSASTKGPSVFPLAPSSKSTSGGTAALGCLVKDYFPEPVTVSWNSGALTSGVHTFPAVLQSSGLYSLSSVVTVPSSSLGTQTYICNVNHKPSNTKVDKKVEPKSCDKTHTGGGSAAAQVQLVESGGGVVQPGRSLRLSCAASGFTFSTYAMNWVRQAPGKGLEWVARIRSKYNNYATYYADSVKDRFTISRDDSKNTLYLQMNSLRAEDTAVYYCARHGNFGNSYVSWFAYWGQGTLVTVSSGGGGSGGGGSGGGGSQTVVTQEPSLTVSPGGTVTLTCRSSTGAVTTSNYANWVQQKPGQAPRGLIGGTNKRAPGVPARFSGSLLGGKAALTLSGVQPEDEAEYYCALWYSNLWVFGGGTKVEIKGGGGSDKTHTCPPCPAPPVAGPSVFLFPPKPKDTLMISRTPEVTCVVVDVSHEDPEVQFNWYVDGVEVHNAKTKPREEQFNSTFRVVSVLTVVHQDWLNGKEYKCKVSNKGLPAPIEKTISKTKGQPREPQVYTLPPCRDELTKNQVSLWCLVKGFYPSDIAVEWESNGQPENNYKTTPPVLDSDGSFFLYSKLTVDKSRWQQGNVFSCSVMHEALHNHYTQKSLSLSPGK heavy: EVKLDETGGGLVQPGRPMKLSCVASGFTFSDYWMNWVRQSPEKGLEWVAQIRNKPYNYETYYSDSVKGRFTISRDDSKSSVYLQMNNLRVEDMGIYYCTGSYYGMDYWGQGTSVTVSSASTKGPSVFPLAPSSKSTSGGTAALGCLVKDYFPEPVTVSWNSGALTSGVHTFPAVLQSSGLYSLSSVVTVPSSSLGTQTYICNVNHKPSNTKVDKKVEPKSCDKTHTCPPCPAPPVAGPSVFLFPPKPKDTLMISRTPEVTCVVVDVSHEDPEVQFNWYVDGVEVHNAKTKPREEQFNSTFRVVSVLTVVHQDWLNGKEYKCKVSNKGLPAPIEKTISKTKGQPREPQVCTLPPSRDELTKNQVSLSCAVKGFYPSDIAVEWESNGQPENNYKTTPPVLDSDGSFFLVSKLTVDKSRWQQGNVFSCSVMHEALHNRFTQKSLSLSPGK light: DVVMTQTPLSLPVSLGDQASISCRSSQSLVHSNGNTYLRWYLQKPGQSPKVLIYKVSNRFSGVPDRFSGSGSGTDFTLKISRVEAEDLGVYFCSQSTHVPWTFGGGTKLEIKRTVAAPSVFIFPPSDEQLKSGTASVVCLLNNFYPREAKVQWKVDNALQSGNSQESVTEQDSKDSTYSLSSTLTLSKADYEKHKVYACEVTHQGLSSPVTKSFNRGEC | 408 nM | 488 nM | no binding
2 | M2IC-DG2 (bispecific antibody, human IgG1, kappa, structure 2 isotype control; CH2 DG2CH2) EVKLDETGGGLVQPGRPMKLSCVASGFTFSDYWMNWVRQSPEKGLEWVAQIRNKPYNYETYYSDSVKGRFTISRDDSKSSVYLQMNNLRVEDMGIYYCTGSYYGMDYWGQGTSVTVSSASTKGPSVFPLAPSSKSTSGGTAALGCLVKDYFPEPVTVSWNSGALTSGVHTFPAVLQSSGLYSLSSVVTVPSSSLGTQTYICNVNHKPSNTKVDKKVEPKSCDKTHTGGGSAAAQVQLVESGGGVVQPGRSLRLSCAASGFTFSTYAMNWVRQAPGKGLEWVARIRSKYNNYATYYADSVKDRFTISRDDSKNTLYLQMNSLRAEDTAVYYCARHGNFGNSYVSWFAYWGQGTLVTVSSGGGGSGGGGSGGGGSQTVVTQEPSLTVSPGGTVTLTCRSSTGAVTTSNYANWVQQKPGQAPRGLIGGTNKRAPGVPARFSGSLLGGKAALTLSGVQPEDEAEYYCALWYSNLWVFGGGTKVEIKGGGGSDKTHTCPPCPAPPVAGPSVFLFPPKPKDTLMISRTPEVTCVVVAVSHEDPEVQFNWYVDGVEVHNAKTKPREEQFNSTFRVVSVLTVVHQDWLNGKEYKCKVSNKGLPAPIEKTISKTKGQPREPQVYTLPPCRDELTKNQVSLWCLVKGFYPSDIAVEWESNGQPENNYKTTPPVLDSDGSFFLYSKLTVDKSRWQQGNVFSCSVMHEALHNHYTQKSLSLSPGK heavy: EVKLDETGGGLVQPGRPMKLSCVASGFTFSDYWMNWVRQSPEKGLEWVAQIRNKPYNYETYYSDSVKGRFTISRDDSKSSVYLQMNNLRVEDMGIYYCTGSYYGMDYWGQGTSVTVSSASTKGPSVFPLAPSSKSTSGGTAALGCLVKDYFPEPVTVSWNSGALTSGVHTFPAVLQSSGLYSLSSVVTVPSSSLGTQTYICNVNHKPSNTKVDKKVEPKSCDKTHTCPPCPAPPVAGPSVFLFPPKPKDTLMISRTPEVTCVVVAVSHEDPEVQFNWYVDGVEVHNAKTKPREEQFNSTFRVVSVLTVVHQDWLNGKEYKCKVSNKGLPAPIEKTISKTKGQPREPQVCTLPPSRDELTKNQVSLSCAVKGFYPSDIAVEWESNGQPENNYKTTPPVLDSDGSFFLVSKLTVDKSRWQQGNVFSCSVMHEALHNRFTQKSLSLSPGK light: DVVMTQTPLSLPVSLGDQASISCRSSQSLVHSNGNTYLRWYLQKPGQSPKVLIYKVSNRFSGVPDRFSGSGSGTDFTLKISRVEAEDLGVYFCSQSTHVPWTFGGGTKLEIKRTVAAPSVFIFPPSDEQLKSGTASVVCLLNNFYPREAKVQWKVDNALQSGNSQESVTEQDSKDSTYSLSSTLTLSKADYEKHKVYACEVTHQGLSSPVTKSFNRGEC | 357 nM | 570 nM | no binding
3 | M2IC-AG2 (bispecific antibody, human IgG1, kappa, structure 2 isotype control; CH2 AG2CH2) EVKLDETGGGLVQPGRPMKLSCVASGFTFSDYWMNWVRQSPEKGLEWVAQIRNKPYNYETYYSDSVKGRFTISRDDSKSSVYLQMNNLRVEDMGIYYCTGSYYGMDYWGQGTSVTVSSASTKGPSVFPLAPSSKSTSGGTAALGCLVKDYFPEPVTVSWNSGALTSGVHTFPAVLQSSGLYSLSSVVTVPSSSLGTQTYICNVNHKPSNTKVDKKVEPKSCDKTHTGGGSAAAQVQLVESGGGVVQPGRSLRLSCAASGFTFSTYAMNWVRQAPGKGLEWVARIRSKYNNYATYYADSVKDRFTISRDDSKNTLYLQMNSLRAEDTAVYYCARHGNFGNSYVSWFAYWGQGTLVTVSSGGGGSGGGGSGGGGSQTVVTQEPSLTVSPGGTVTLTCRSSTGAVTTSNYANWVQQKPGQAPRGLIGGTNKRAPGVPARFSGSLLGGKAALTLSGVQPEDEAEYYCALWYSNLWVFGGGTKVEIKGGGGSDKTHTCPPAPAPPVAGPSVFLFPPKPKDTLMISRTPEVTCVVVDVSHEDPEVQFNWYVDGVEVHNAKTKPREEQFNSTFRVVSVLTVVHQDWLNGKEYKCKVSNKGLPAPIEKTISKTKGQPREPQVYTLPPCRDELTKNQVSLWCLVKGFYPSDIAVEWESNGQPENNYKTTPPVLDSDGSFFLYSKLTVDKSRWQQGNVFSCSVMHEALHNHYTQKSLSLSPGK heavy: EVKLDETGGGLVQPGRPMKLSCVASGFTFSDYWMNWVRQSPEKGLEWVAQIRNKPYNYETYYSDSVKGRFTISRDDSKSSVYLQMNNLRVEDMGIYYCTGSYYGMDYWGQGTSVTVSSASTKGPSVFPLAPSSKSTSGGTAALGCLVKDYFPEPVTVSWNSGALTSGVHTFPAVLQSSGLYSLSSVVTVPSSSLGTQTYICNVNHKPSNTKVDKKVEPKSCDKTHTCPPAPAPPVAGPSVFLFPPKPKDTLMISRTPEVTCVVVDVSHEDPEVQFNWYVDGVEVHNAKTKPREEQFNSTFRVVSVLTVVHQDWLNGKEYKCKVSNKGLPAPIEKTISKTKGQPREPQVCTLPPSRDELTKNQVSLSCAVKGFYPSDIAVEWESNGQPENNYKTTPPVLDSDGSFFLVSKLTVDKSRWQQGNVFSCSVMHEALHNRFTQKSLSLSPGK light: DVVMTQTPLSLPVSLGDQASISCRSSQSLVHSNGNTYLRWYLQKPGQSPKVLIYKVSNRFSGVPDRFSGSGSGTDFTLKISRVEAEDLGVYFCSQSTHVPWTFGGGTKLEIKRTVAAPSVFIFPPSDEQLKSGTASVVCLLNNFYPREAKVQWKVDNALQSGNSQESVTEQDSKDSTYSLSSTLTLSKADYEKHKVYACEVTHQGLSSPVTKSFNRGEC | 535 nM | 607 nM | no binding
